Assay in all cases: purified protein
What all share (assay type): biochemical, Arabidopsis thaliana

Substrate in data set [1]: N[C@@H](Cc1c[nH]c2ccccc12)C(=O)O
The conditions noted are these: 0.2 mM PLP, 100 mM HEPES pH 8.0, 30 °C.

Substrate in data set [2]: N[C@@H](Cc1ccccc1)C(=O)O
Particulars: 0.2 mM PLP, 100 mM HEPES pH 8.0, 30 °C.

Substrate in data set [3]: N[C@@H](Cc1ccc(O)cc1)C(=O)O
The conditions noted are these: 0.2 mM PLP, 100 mM HEPES pH 8.0, 30 °C.

Substrate in data set [4]: N[C@@H](Cc1c[nH]cn1)C(=O)O
Particulars: 20 mM alpha-ketoglutarate, 0.2 mM PLP, 100 mM HEPES pH 8.0, 30 °C.

B1: AtTAA1 (Arabidopsis thaliana) (protein)
chain: MVKLENSRKPEKISNKNIPMSDFVVNLDHGDPTAYEEYWRKMGDRCTVTIRGCDLMSYFSDMTNLCWFLEPELEDAIKDLHGVVGNAATEDRYIVVGTGSTQLCQAAVHALSSLARSQPVSVVAAAPFYSTYVEETTYVRSGMYKWEGDAWGFDKKGPYIELVTSPNNPDGTIRETVVNRPDDDEAKVIHDFAYYWPHYTPITRRQDHDIMLFTFSKITGHAGSRIGWALVKDKEVAKKMVEYIIVNSIGVSKESQVRTAKILNVLKETCKSESESENFFKYGREMMKNRWEKLREVVKESDAFTLPKYPEAFCNYFGKSLESYPAFAWLGTKEETDLVSELRRHKVMSRAGERCGSDKKHVRVSMLSREDVFNVFLERLANMKLIKSIDL
For orientation: Km means the substrate concentration at which the rate is half of its maximum. As usually defined, the kcat is the maximal rate divided by the concentration of active sites. In the case of B1, the Km in the data set “purified protein [1]” (20 mM pyruvate) turned out to be 1.2 ± 0.2 mM; in “purified protein [2]” (20 mM pyruvate) it was 13 ± 3 mM; in the data set “purified protein [3]” (20 mM pyruvate) it was 8 ± 3 mM; in the data set “purified protein [4]” it was 11 ± 2 mM. Moreover, the kcat in “purified protein [1]” (20 mM pyruvate) stood at 4.2 ± 0.2 s⁻¹; in “purified protein [2]” (20 mM pyruvate), 2.0 ± 0.3 s⁻¹; in “purified protein [3]” (20 mM pyruvate), 13.2 ± 0.3 s⁻¹; in the data set “purified protein [4]” it was 0.6 ± 0.1 s⁻¹.

B2: AtTAR1 (Arabidopsis thaliana) (protein)
chain: MMVGCENSKKSDSGSNEDKSLSDDIINLDQGDPTAFQEYWMKKKDRCTVVIPAWDLMSYFSDTKNVCWFLEPELEKAIKALHGAIGNAATEERYIVVGTGSSQLCQAALFALSSLSEVKPVSIVAAVPYYSTYVEEASYLQSTLYKWEGDARTFDKKGPYIELVTSPNNPDGIMREPVVNRREGGKVIHDLAYYWPHYTPITRRQDHDLMLFTFSKITGHAGSRIGWALVKDIEVAKKMVHYLTINSIGVSKESQTRATTILNELTKTCRTQSESFFEYGYEKMKSRWERLREVVESGDAFTLPNYPQDFCNFFGKTLSTSPAFAWLGYKEERDLGSLLKEKKVLTRGGDRCGCNKRYVRVSMLSRDDDFDVSLQRLATIKDLKCVEP
Regarding B2, the Km in “purified protein [1]” (20 mM alpha-ketoglutarate) is 0.07 ± 0.02 mM; in “purified protein [2]” (20 mM alpha-ketoglutarate), 2.6 ± 0.3 mM; in “purified protein [3]” (20 mM alpha-ketoglutarate), 1 ± 3 mM; in “purified protein [4]”, 30 ± 6 mM. Besides, the kcat in “purified protein [1]” (20 mM alpha-ketoglutarate) came out at 4.5 ± 0.2 s⁻¹; in “purified protein [2]” (20 mM alpha-ketoglutarate) it was 5.0 ± 0.2 s⁻¹; in the data set “purified protein [3]” (20 mM alpha-ketoglutarate), 4.0 ± 0.3 s⁻¹; in “purified protein [4]”, 1.8 ± 0.1 s⁻¹.

The values above are taken from article PMC9957770, “Mass spectrometry imaging–based assays for aminotransferase activity reveal a broad substrate spectrum for a previously uncharacterized enzyme” (The Journal of Biological Chemistry, 2023).
